Experimental data as given in publication doi:10.1101/411223 (bioRxiv, 2018).

Key:
Kap114p [1] = target: T1, Kap114p (S. cerevisiae, UniProt P53067 1-1004); test: ITC
T1 sequence (looked up): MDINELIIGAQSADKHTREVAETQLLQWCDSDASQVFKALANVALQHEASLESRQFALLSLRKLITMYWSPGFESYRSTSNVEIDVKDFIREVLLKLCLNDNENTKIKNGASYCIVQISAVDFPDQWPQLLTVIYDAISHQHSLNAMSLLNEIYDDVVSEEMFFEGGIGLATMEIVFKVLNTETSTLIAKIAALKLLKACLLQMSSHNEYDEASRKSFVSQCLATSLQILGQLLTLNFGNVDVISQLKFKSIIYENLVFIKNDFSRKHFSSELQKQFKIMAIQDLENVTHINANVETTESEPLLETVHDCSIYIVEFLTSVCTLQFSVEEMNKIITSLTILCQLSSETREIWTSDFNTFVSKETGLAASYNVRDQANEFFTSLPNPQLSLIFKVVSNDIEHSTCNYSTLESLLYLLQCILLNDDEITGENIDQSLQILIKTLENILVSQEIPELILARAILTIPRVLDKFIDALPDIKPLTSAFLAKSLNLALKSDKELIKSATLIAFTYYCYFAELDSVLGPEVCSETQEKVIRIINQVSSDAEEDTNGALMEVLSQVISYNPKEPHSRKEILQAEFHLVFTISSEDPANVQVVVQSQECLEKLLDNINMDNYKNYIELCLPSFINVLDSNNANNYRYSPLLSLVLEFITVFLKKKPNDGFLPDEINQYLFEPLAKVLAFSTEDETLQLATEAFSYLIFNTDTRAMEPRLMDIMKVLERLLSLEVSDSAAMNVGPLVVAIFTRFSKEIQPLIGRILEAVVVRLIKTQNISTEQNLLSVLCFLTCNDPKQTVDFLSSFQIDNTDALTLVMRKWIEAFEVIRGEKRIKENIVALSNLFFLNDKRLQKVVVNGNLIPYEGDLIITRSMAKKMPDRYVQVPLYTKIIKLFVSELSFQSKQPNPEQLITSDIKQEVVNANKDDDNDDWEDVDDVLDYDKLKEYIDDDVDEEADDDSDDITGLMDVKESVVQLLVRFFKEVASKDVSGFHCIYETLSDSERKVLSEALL

Kap95p = target: T2, Kap95p (S. cerevisiae, UniProt Q06142 1-861); test: ITC
T2 sequence (looked up): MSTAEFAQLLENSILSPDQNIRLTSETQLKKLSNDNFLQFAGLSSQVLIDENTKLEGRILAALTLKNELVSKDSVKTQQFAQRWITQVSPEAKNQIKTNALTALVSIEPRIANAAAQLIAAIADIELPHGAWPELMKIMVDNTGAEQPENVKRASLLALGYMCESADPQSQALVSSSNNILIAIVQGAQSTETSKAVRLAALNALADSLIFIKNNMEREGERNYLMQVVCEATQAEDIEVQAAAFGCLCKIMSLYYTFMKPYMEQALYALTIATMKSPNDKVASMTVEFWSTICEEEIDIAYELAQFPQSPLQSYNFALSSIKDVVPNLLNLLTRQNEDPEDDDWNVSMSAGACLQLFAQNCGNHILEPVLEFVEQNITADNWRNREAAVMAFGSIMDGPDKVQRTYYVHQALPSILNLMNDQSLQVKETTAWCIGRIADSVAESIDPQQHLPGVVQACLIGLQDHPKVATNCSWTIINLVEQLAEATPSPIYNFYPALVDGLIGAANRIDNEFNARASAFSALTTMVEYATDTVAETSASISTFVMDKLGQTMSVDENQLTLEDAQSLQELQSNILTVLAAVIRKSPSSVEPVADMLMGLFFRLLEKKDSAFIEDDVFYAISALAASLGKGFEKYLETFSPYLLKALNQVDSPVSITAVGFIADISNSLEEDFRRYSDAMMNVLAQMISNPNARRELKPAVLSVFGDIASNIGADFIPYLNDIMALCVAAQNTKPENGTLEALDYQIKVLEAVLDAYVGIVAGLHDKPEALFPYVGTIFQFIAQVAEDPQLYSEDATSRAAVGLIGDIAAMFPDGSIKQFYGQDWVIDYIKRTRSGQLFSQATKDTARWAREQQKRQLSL

Kap114p [2] = target: T1, Kap114p; test: AUC

Kd (Kap114p [1]): 0.006 µM
Kd (Kap95p): ~10 µM
stoichiometry N (Kap114p [2]): 1
B1: yTBP (61-240) (domain or fragment, S. cerevisiae, UniProt P13393 61-240, looked up)
chain: SGIVPTLQNIVATVTLGCRLDLKTVALHARNAEYNPKRFAAVIMRIREPKTTALIFASGKMVVTGAKSEDDSKLASRKYARIIQKIGFAAKFTDFKIQNIVGSCDVKFPIRLEGLAFSHGTFSSYEPELFPGLIYRMVKPKIVLLIFVSGKIVLTGAKQREEIYQAFEAIYPVLSEFRKM
